Measured values as given in publication PMC12737490, “Beta Toxins Isolated from the Scorpion Centruroides hirsutipalpus (Scorpiones; Buthidae) Affect the Function of Sodium Channels of Mammals” (Toxins, 2025).

B1: Chirp7 (peptide)
chain: KEGYLVNHSTGCKYECFKLGDNDYCLRECRQQYGKGAGGYCYAFGCWCTHLYEQAVVWPLPKKTCN-NH2
modifications: disulfide (positions not given here); also: four disulfide bridges, pairing not given here
B2: Chirp9 (peptide)
chain: KEGYIVDYHTGCKYTCAKLGDNDYCVRECRLRYYQSAHGYCYAFACWCTHLYEAAVVWPLPNKRCK-NH2
modifications: disulfide (positions not given here); also: four disulfide bridges, pairing not given here

What was measured:
hNav 1.1 = assay: Patch-clamp macroscopic sodium currents, hNav1.1 in HEK cells; type: cell-based, human; conditions: 200 nM toxin, mean ± SE of 5 cells (3–5 cells); for I/Imax (residual peak current): Chirp9 value marked * (p<0.05 paired t-test); for slope of activation after toxin: control 7.7 ± 0.7 (Chirp7 cells), 7.2 ± 0.3 (Chirp9 cells); for V0.5 of activation after toxin: control -24.8 ± 0.8 (Chirp7 cells, toxin value marked *), -22.8 ± 0.3 (Chirp9 cells), * = p<0.05 paired t-test; for slope of inactivation after toxin / V0.5 of inactivation after toxin: steady-state inactivation; for slope of inactivation after toxin: control 6.7 ± 0.1 (Chirp7 cells), 6.8 ± 0.2 (Chirp9 cells); for V0.5 of inactivation after toxin: control -59.9 ± 0.2 (Chirp7 cells), -59 ± 0.2 (Chirp9 cells)
Protocol: (§1) Recordings of macroscopic currents from sodium channels. Human voltage-gated sodium channels (hNav 1.1, hNav 1.2 and hNa 1.6) were stably expressed in HEK cells. Cells were maintained at 37 ◦C with 5% CO2 in a humidified atmosphere. The growth medium consisted of high-glucose Dulbecco’s Modified Eagle Medium (DMEM, Sigma Aldrich, Naucalpan de Juarez, Estado de Mexico, Mexico), supplemented with 10% Fetal Bovine Serum (ByProductos, Guadalajara, Jalisco, Mexico) and 500 μg/mL of the antibiotic G418 (Sigma Aldrich, Naucalpan de Juarez, Estado de Mexico, Mexico). The extracellular solution was composed of (in mM): 130 NaCl, 5 KCl, 2 CaCl2, 2 MgCl2, 10 HEPES, and 5 glucose, with the pH adjusted to 7.3 using NaOH. The intracellular solution contained (in mM): 105 CsF, 27 CsCl, 5 NaCl, 2 MgCl2, 10 EGTA, and 10 HEPES, with the pH also adjusted to 7.3 with CsOH. Solutions were delivered to the patched cell via an active perfusion system connected to a variable-speed syringe pump (Model A-99, Razel Scientific Instruments, Fairfax, VT, USA), with a perfusion rate of approximately 1 μL/s. Patch pipettes were made from borosilicate glass capillaries (Warner Instruments, Hamden, CT, USA) using a vertical puller (Model P-30, Sutter Instrument, Novato, CA, USA). The pipettes were filled with the internal solution and had resistance ranging from 1.5 and 3 MΩ. Sodium currents were elicited by 100 ms depolarization ranging from −110 to 30 mV in 10 mV steps, followed by a fully activating step at −10 mV for 50 ms. To better appreciate the effects of scorpion β-sodium toxins, channels were primed by means of a 5 ms depolarization at 50 mV, applied 50 ms before the depolarization steps, as previously described in Cestele et al. 1998 [17]. To ensure complete recovery from inactivation, cells were maintained at −120 mV for 280 ms before each step, while holding potential was set at −100 mV. Currents were acquired using a MultiClamp 700A amplifier and a DigiData 1440A digitizer (Molecular Devices, CA, USA).
For the activation curve, conductance (G) was calculated from current (I) elicited during depolarization steps by means of the equation G = I/(Vm − ENa), where I is the current elicited at membrane potential Vm, and ENa is the reversal potential of Na^+ ions, calculated experimentally for each cell. Conductance was normalized to its maximal level and plotted against the corresponding membrane potential. For the steady-state inactivation curve, currents elicited at −10 mV (after preconditioning depolarization from −110 to 30 mV) were plotted against the preconditioning potentials. Data from activation and from steady-state inactivation were fitted using a Boltzmann equation: y = A2 + (A1 − A2)/(1 + exp((x − x0)/dx)) where A1 is the initial value, A2 is the final value, x0 is the potential of half-activation (or half-inactivation) and dx is the slope. […]
Figure S1. Recordings of macroscopic currents from sodium channels. Sodium currents in B) were elicited by the stimulation protocol depicted in A): currents were elicited by 100 ms depolarization ranging from -110 to 30 mV in 10 mV steps, followed by a fully activating step at -10 mV for 50 ms.
A 5 ms depolarization at 50 mV was applied 50 ms before the depolarization steps to primed the channels. Peak currents obtained during the step depolarization from -110 to 30 mV (C and D, black circle in control and open circle after toxin application) were used to calculate the conductance and construct the activation curves. Currents recorded during the step at -10 mV (C and D, black square in control and open square for the toxin), were used to construct the inactivation curves. […]

hNav 1.6 = assay: Patch-clamp macroscopic sodium currents, hNav1.6 in HEK cells; type: cell-based, human; conditions: 200 nM toxin; for A: fraction of channels bound to the toxin: activation; for A: fraction of channels bound to the toxin / slope of activation after toxin / V0.5 of activation after toxin: sum of two Boltzmann fit; for A: fraction of channels bound to the toxin / I/Imax (residual peak current) / slope of inactivation after toxin / V0.5 of inactivation after toxin / slope of activation after toxin / V0.5 of activation after toxin: mean ± SE of 5 cells (3–5 cells); for I/Imax (residual peak current): both values marked * (p<0.05 paired t-test); for slope of inactivation after toxin / V0.5 of inactivation after toxin: steady-state inactivation; for slope of inactivation after toxin: control 6.6 ± 0.3 (Chirp7 cells), 6.3 ± 0.1 (Chirp9 cells); for V0.5 of inactivation after toxin: control -55.8 ± 0.3 (Chirp7 cells), -65.0 ± 0.1 (Chirp9 cells); for slope of activation after toxin: control 5.6 ± 0.22 (Chirp7 cells), 7.0 ± 0.4 (Chirp9 cells); for slope of activation after toxin / V0.5 of activation after toxin: both toxin values marked * (p<0.05); for V0.5 of activation after toxin: toxin-bound component, control -22.8 ± 0.3 (Chirp7 cells), -22.5 ± 0.3 (Chirp9 cells)
Protocol: as §1
For the activation curve, conductance (G) was calculated from current (I) elicited during depolarization steps by means of the equation G = I/(Vm − ENa), where I is the current elicited at membrane potential Vm, and ENa is the reversal potential of Na^+ ions, calculated experimentally for each cell. Conductance was normalized to its maximal level and plotted against the corresponding membrane potential. For the steady-state inactivation curve, currents elicited at −10 mV (after preconditioning depolarization from −110 to 30 mV) were plotted against the preconditioning potentials. Data from activation and from steady-state inactivation were fitted using a Boltzmann equation: y = A2 + (A1 − A2)/(1 + exp((x − x0)/dx)) where A1 is the initial value, A2 is the final value, x0 is the potential of half-activation (or half-inactivation) and dx is the slope.
For hNav 1.6 currents, activation data after toxin exposure were fitted using the sum of two Boltzmann equations: y = y0 + A (frac/(1 + exp((x − x01)/k1)) + (1 − frac)/(1 + exp((x − x02)/k2))) where the sum is 1, x01 and dx1 are the same as under control conditions, and “frac” represents the fraction of channels bound to the toxin. Data are presented as means ± standard error (SE). The paired sample t-test (also known as the dependent samples t-test) was applied by comparing, for each individual cell recorded, the electrophysiological parameter of interest (e.g., peak current, V½ of activation or inactivation) before toxin application and after toxin application. Significant difference was accepted with a confidence level “p” set at 0.05. […]
Figure S1. Recordings of macroscopic currents from sodium channels. Sodium currents in B) were
elicited by the stimulation protocol depicted in A): currents were elicited by 100 ms depolarization
ranging from -110 to 30 mV in 10 mV steps, followed by a fully activating step at -10 mV for 50 ms. […]

antibody = assay: Antibody recognition of Chirp9 compared with Cl13; type: binding; conditions: effect of the two amino acid differences between Chirp9 and Cl13
Description: Evaluation of the recognition capability of scFvs for the toxins of C. hirsutipalpus. Surface plasmon resonance (SPR) evaluations of the recognition capability of scFvs for the toxins of C. hirsutipalpus. The toxins from C. hirsutipalpus were used to evaluate the recognition capacity of antibody fragments previously generated against Mexican scorpion toxins in a biosensor that detects molecular interactions in real time (Biacore X100, Uppsala, Sweden). The toxins Chirp7 and Chirp9 were covalently immobilized onto the surface of CM5 Chips using the amino coupling kit, achieving binding levels of 200 RUs (1 RU corresponds to a change in surface concentration of approximately one pg of bound mass per mm^2). Each pure toxin was solubilized in 10 mM 2-(N-morpholino) ethanesulfonic acid (pH 6) and bound to cell 2. Cell 1 in the sensor (without bound toxin) was used as a control. The scFvs LR, 10FG2, 11F, HV, and RAS 27 [21] were evaluated for their ability to recognize each toxin.

| Molecule | I/Imax (residual peak current) (hNav 1.1) | slope of activation after toxin (hNav 1.1) | V0.5 of activation after toxin (hNav 1.1) | slope of inactivation after toxin (hNav 1.1) | V0.5 of inactivation after toxin (hNav 1.1) | effect on activation curve (hNav 1.6) | effect on peak current (hNav 1.6) | A: fraction of channels bound to the toxin (hNav 1.6) | I/Imax (residual peak current) (hNav 1.6) | slope of inactivation after toxin (hNav 1.6) | V0.5 of inactivation after toxin (hNav 1.6) | slope of activation after toxin (hNav 1.6) | V0.5 of activation after toxin (hNav 1.6) | effect on inactivation kinetic (hNav 1.6; residual current at potentials greater than −30 mV) | antibody recognition of Chirp9 versus Cl13 (antibody) |
| --- | --- | --- | --- | --- | --- | --- | --- | --- | --- | --- | --- | --- | --- | --- | --- |
| B1 | 0.98±0.02 | 6.9 ± 0.5 | -26.9 ± 0.6 mV | 6.4 ± 0.1 | -60.9 ± 0.2 mV | leftward shift in the activation curves | reduced the peak current | 0.34 ± 0.04 | 0.88 ± 0.03 | 7.2 ± 0.4 | -58 ± 0.4 mV | 9.4 ± 1.9 | -52.5 ± 3.4 mV |  |  |
| B2 | 0.94 ± 0.02 | 8.2 ± 0.2 | -23.6 ± 0.2 mV | 7.3 ± 0.2 | -60.1 ± 0.2 mV | leftward shift in the activation curves | reduced the peak current | 1 ± 0.1 | 0.29 ± 0.03 | 6.9 ± 0.4 | -67.1 ± 0.5 mV | 15.5 ± 0.9 | -40.9 ± 0.2 mV | slows down the inactivation kinetic by promoting a residual current | significantly reduce antibody recognition |
